Assay results as given in PMC10844748.

Molecular target: S. cerevisiae translation elongation factor 1A (eEF1A), TEF1-encoded, purified from a ΔEFM4 strain (S. cerevisiae) (UniProt P02994)
Sequence of UniProt P02994 (P02994 whole entry, stated change not applied): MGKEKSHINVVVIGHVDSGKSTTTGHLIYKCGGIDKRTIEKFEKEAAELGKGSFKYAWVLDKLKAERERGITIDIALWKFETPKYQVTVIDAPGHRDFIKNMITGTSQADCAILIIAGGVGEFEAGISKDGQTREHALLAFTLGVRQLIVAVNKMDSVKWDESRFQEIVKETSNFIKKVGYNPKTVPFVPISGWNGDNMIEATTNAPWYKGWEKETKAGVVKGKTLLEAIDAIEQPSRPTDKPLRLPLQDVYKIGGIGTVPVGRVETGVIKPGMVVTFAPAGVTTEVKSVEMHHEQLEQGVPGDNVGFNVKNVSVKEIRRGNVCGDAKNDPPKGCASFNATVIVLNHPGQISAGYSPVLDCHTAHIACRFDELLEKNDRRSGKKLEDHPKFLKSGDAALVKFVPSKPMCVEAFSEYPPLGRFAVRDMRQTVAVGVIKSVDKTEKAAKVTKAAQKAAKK

B1: Efm4 F210A/F212A double mutant (enzyme)
chain: FRRNPQDTGDCWFSDSDAEQKMIDFLVDNIGAYRISENASVVDLGTGNGHMLFELHQTEFQGKLVGIDYSEESVKLASNIAEATGVDNFISFQQADIFSGDWKPGKYDIVLDKGTLDAISLSGMKINGKLDVVDVYAGVVERILKKDGIFLITSCNFTQDELVKIIETDNLKMWKTIKYPVAQAGGVQGATICSVAFVKQN
in vitro methylation of eEF1A K316 (Efm4 3 μM, eEF1A 2 μM, AdoMet, 30 min, 30 °C; LC-MS/MS): < 20%
